Paper PMC12277278 (Frontiers in Immunology, 2025)

Biological target: T1, recombinant DbpA from B. burgdorferi strain 297 (DbpA297) (Borrelia burgdorferi strain 297, UniProt O50917)
T1 construct: also called recombinant DbpA297
Assay: multiplex microsphere immunoassay (MIA, Luminex); recombinant antigens coupled to MagPlex-C microspheres; diluted MAb incubated 1 h at RT; PE-labelled secondary antibody; MFI read on a FlexMap 3D
Details: both partners purified

T1 sequence (O50917 30-168): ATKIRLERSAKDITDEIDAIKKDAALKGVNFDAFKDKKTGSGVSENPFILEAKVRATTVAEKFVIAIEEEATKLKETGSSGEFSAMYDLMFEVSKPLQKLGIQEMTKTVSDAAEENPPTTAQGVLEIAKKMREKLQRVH

B1: F945 IgG (recombinant human monoclonal antibody, IgG1/kappa) (antibody, V domains shown)
VH: QVQLVESGGGVVQPGRSLRLSCAASGFSFNTYAFHWVRQGPGKGLEWVAGISFDGSKRYYADSVKGRFTVSRDNSKNTLYLQMNGLIPEDTAVYYCARDRRIVVVSAPGYWGQGTLVTVSS
VL: DIQMTQSPSSLSASVGDRVTITCQASHDISNYLNWYQQKPGKAPKLLIFDASYLETGVPSRFSGSGSGTDFTFTINSLQSEDIATYYCQQYDTLLSFGGGTRVEIK
binding result: no binding
